According to PMC9758184:
Where two headings read alike, the source gives them in different places. Blank lines part the entries; values can stand above or below the substance they belong to.

Tests used:
Assay in all cases: SEC; Superdex 200 HR 10/30, cold 1x PBS pH 7.2; native size of each protein from its own elution volume against size standards, dark- or light-incubated (same result in both); PmSB-LOV C53A run only in the mixture with PmlR2
[1] = molecular target: PmSB-LOV (Pseudomonas mendocina Sensory box-LOV), wild-type tag-free recombinant protein (Pseudomonas mendocina NBRC 14162)
[2] = molecular target: PmSB-LOV (Pseudomonas mendocina Sensory box-LOV), wild-type tag-free recombinant protein (Pseudomonas mendocina NBRC 14162); remark: listed apart in the source
[3] = molecular target: PmlR2-N (1-113 aa), tag-free recombinant protein containing only the HTH DNA-binding domain (Pseudomonas mendocina NBRC 14162)
[4] = molecular target: PmlR2 (Pseudomonas mendocina light-inducible transcriptional regulator), tag-free recombinant protein (Pseudomonas mendocina NBRC 14162)

stoichiometry N [1]: 2
stoichiometry N [2]: 3
Substance: PmSB-LOV (Pseudomonas mendocina Sensory box-LOV), wild-type tag-free recombinant protein (natural protein)

stoichiometry N [3]: 2
Substance: PmlR2-N (1-113 aa), tag-free recombinant protein containing only the HTH DNA-binding domain (domain or fragment)

stoichiometry N [4]: 6
Substance: PmlR2 (Pseudomonas mendocina light-inducible transcriptional regulator), tag-free recombinant protein (natural protein)
